Experimental data as given in paper PMC4409310, “Substrate Recognition and Modification by the Nosiheptide Resistance Methyltransferase” (PLoS ONE, 2015).

B1: HA-His-NHR-R135A (enzyme, Streptomyces actuosus, UniProt P52391 1-274, looked up)
chain: MTEPAIITNASDPAVQRIIDVTKHSRASIKTTLIEDTEPLMECIRAGVQFIEVYGSSGTPLDPALLDLCRQREIPVRLIDVSIVNQLFKAERKAKVFGIARVPRPARLADIAERGGDVVVLDGVKIVGNIGAIVATSLALGAAGIVLVDSDLATIADRRLLRASRGYVFSLPVVLADREEAVSFLRDNDIALMVLDTDGDLGVKDLGDRADRMALVFGSEKGGPSGLFQEASAGTVSIPMLSSTESLNVSVSVGIALHERSARNFAVRRAAAQA
notes: nosiheptide resistance methyltransferase (NHR), Streptomyces actuosus; Homodimer when alone; in the heterodimer with Flag-Trx-His-NHR one chain of each construct; also called HA-NHR-R135A; HA-R135A-NHR; source: site-directed mutagenesis of His-NHR, HA tag added by PCR; purified (Ni-NTA, gel filtration); not shown: His6, N-terminal, kept

What was measured:
[1] = target: the molecule itself; experiment: native gel or EMSA; differently tagged (short and long) NHR proteins mixed at 4°C overnight, then incubated with 58 nt or 29 nt RNA (6-10 μM RNA, 2-10 μM protein) for 1 hour at 4°C in 25 mM Hepes-KOH, 25 mM NH4Cl, 5 mM MgCl2, 5 mM DTT, pH 8.0; 6% polyacrylamide native gel, SYBR Gold; dimers seen as RNA-protein complexes
HA-His-NHR-R135A = target: B1; experiment: as above; details: both partners purified

Row | Binder | stoichiometry N [1] | binding result (HA-His-NHR-R135A)
1 | N-terminal hexahistidine tagged nosiheptide resistance methyltransferase (His-NHR) (enzyme, Streptomyces actuosus, UniProt P52391 1-274, looked up, nosiheptide resistance methyltransferase (NHR), Streptomyces actuosus; wild type; Homodimer when alone; in the heterodimer with Trx-NHR one chain of each construct; also called NHR(S); short, S; source: over expressed from pET-28a-NHR, purified (Ni-NTA, gel filtration); not shown: His6, N-terminal, kept) MTEPAIITNASDPAVQRIIDVTKHSRASIKTTLIEDTEPLMECIRAGVQFIEVYGSSGTPLDPALLDLCRQREIPVRLIDVSIVNQLFKAERKAKVFGIARVPRPARLADIAERGGDVVVLDGVKIVGNIGAIVRTSLALGAAGIVLVDSDLATIADRRLLRASRGYVFSLPVVLADREEAVSFLRDNDIALMVLDTDGDLGVKDLGDRADRMALVFGSEKGGPSGLFQEASAGTVSIPMLSSTESLNVSVSVGIALHERSARNFAVRRAAAQA | 2 | 
2 | B1 | 2 | 
3 | thioredoxin tagged nosiheptide resistance methyltransferase (Trx-NHR) (enzyme, Streptomyces actuosus, UniProt P52391 1-274, looked up, nosiheptide resistance methyltransferase (NHR), Streptomyces actuosus; wild type; Homodimer when alone; in the heterodimer with His-NHR one chain of each construct; Named Trx-His-NHR in the methods; also called Trx-His-NHR; NHR(L); source: over expressed from pET-32M-NHR, purified (Ni-NTA, gel filtration); not shown: thioredoxin, N-terminal, kept) MTEPAIITNASDPAVQRIIDVTKHSRASIKTTLIEDTEPLMECIRAGVQFIEVYGSSGTPLDPALLDLCRQREIPVRLIDVSIVNQLFKAERKAKVFGIARVPRPARLADIAERGGDVVVLDGVKIVGNIGAIVRTSLALGAAGIVLVDSDLATIADRRLLRASRGYVFSLPVVLADREEAVSFLRDNDIALMVLDTDGDLGVKDLGDRADRMALVFGSEKGGPSGLFQEASAGTVSIPMLSSTESLNVSVSVGIALHERSARNFAVRRAAAQA | 2 | 
4 | Flag-Trx-His-NHR (enzyme, Streptomyces actuosus, UniProt P52391 1-274, looked up, nosiheptide resistance methyltransferase (NHR), Streptomyces actuosus; wild type; Homodimer when alone; in the heterodimer with HA-His-NHR-R135A one chain of each construct; also called Flag-NHR; Flag-Trx-NHR; source: Flag tag added to Trx-His-NHR by PCR; purified (Ni-NTA, gel filtration); not shown: thioredoxin, N-terminal, kept) MTEPAIITNASDPAVQRIIDVTKHSRASIKTTLIEDTEPLMECIRAGVQFIEVYGSSGTPLDPALLDLCRQREIPVRLIDVSIVNQLFKAERKAKVFGIARVPRPARLADIAERGGDVVVLDGVKIVGNIGAIVRTSLALGAAGIVLVDSDLATIADRRLLRASRGYVFSLPVVLADREEAVSFLRDNDIALMVLDTDGDLGVKDLGDRADRMALVFGSEKGGPSGLFQEASAGTVSIPMLSSTESLNVSVSVGIALHERSARNFAVRRAAAQA | 2 | binds
